Measurements published in patent US9624285B2, “Methods of treating diabetes and compositions capable of same” (Ramot a Tel-Aviv University Ltd., priority 2010, dated 2017).
No end group written: not given here.

Tests used:
[1] = test system: Rin-m cells; test: Confocal microscopy of cells incubated with labelled oligomers; format: cell-based; conditions: 5 μM
Procedure: Rin-m cells were cultured on glass cover slips located in 24-well micro plates, then incubated for different periods with hIAPP-Hiytelfluor 488 (Anaspec, USA) oligomers (5 μM) at 37° C., as described in the cell cytotoxicity experiments section. After incubation cells were washed with PBS buffer and fixed with 4% paraformaldehyde in PBS for 5 minutes and washed with PBS buffer. Cells were treated with 1% Triton x-100 in PBS and stained with 50 μg/ml Phalloidin Tetramethyl-rhodamine B isothiocyanate (Sigma-Aldrich) in PBS 40 minutes in room temperature, followed by extensive wash with PBS buffer. The cells were imaged using LSM 510 confocal laser scanning microscope (Carl Zeiss Jena, Germany).

[2] = test system: Rin-m cells; test: MTT reduction assay; format: cell-based
Procedure: Rin-m cells (2×10^5 cells/ml) were cultured in 96-well micro plates (100 μl/well) and incubated overnight at 37° C. Human oligomers and rat IAPP was added to each well at various concentrations. Each measurement was repeated four times. Following incubation for 6 hours at 37° C., cell viability was evaluated using 3-(4,5-dimethylthiazolyl-2)-2,5-diphenyltetrazolium bromide (MTT) assay. Briefly, 20 μL of 5 mg/ml MTT dissolved in PBS was added to each well. After 4 hours incubation at 37° C., 100 μl of extraction buffer [20% SDS dissolved in a solution of 50% dimethylformamide and 50% DDW (pH 4.7)] was added to each well, and the plates were incubated again overnight at 37° C. Finally, color intensity was measured using an ELISA plate reader at 570 nm.

[3] = Oligomer stability assay (PAGE under non reducing conditions); format: physicochemical; conditions: dialyzed against PBS buffer, incubated at 37° C.
Procedure: FIGS. 1A-E are graphs and photographs illustrating characterization of human IAPP oligomers. (FIG. 1A) PAGE analysis under non-reducing conditions of human IAPP oligomers and a negative control of non amyloidogenic rat IAPP (I-monomer, II-dimer and III-trimer). (FIG. 1B) Oligomer stability assay, hIAPP oligomers were dialyzed against PBS buffer and incubated at 37° C. Oligomer association/disassociation was monitored by PAGE analysis under non reducing conditions. (FIG. 1C) Size exclusion chromatography (Superdex 75 10/300, PBS buffer pH 7.4) of hIAPP oligomers; I-monomer, […], III-trimer and IV-90 kDa oligomer. (FIG. 1D) Transmittance electron microscopy (TEM) and atomic force microscopy (AFM) images of the ˜90 kDa oligomers, TEM scale bar 100 nm, AFM scale bar 600 nm. (FIG. 1E) CD spectroscopy of hIAPP and rIAPP, protein concentration of 5 μM. Each spectrum represents the average of three measurements.
IAPP synthetic peptide (Human; H-7905, Bachem, Bubendorf, Switzerland. Rat; 74-5-10A, American peptide, California, U.S.A) was suspended in 100% 1,1,1,3,3,3 hexafluoro-2-propanol (HFIP) at 1 mg/ml and incubated for complete solubilization under shaking (100 rpm) at 37° C. for 2 hours. […] IAPP self-assembly products were analyzed by 15% Tris-tricine PAGE and stained with Imperial protein stain. […]

[4] = test system: Rin-m cells; test: Flow cytometry cell sorting (FACS) assay, Annexin V-FITC apoptosis detection; format: cell-based; conditions: 0.5 μM, 1 μM and 5 μM
Procedure: Rin-m cells (5×10^5 cells/ml) were cultured for 4 hours at 37° C. incubated with human IAPP oligomers (final concentration of 0.5 μM, 1 μM and 5 μM). Samples were washed with PBS buffer and resuspended with 500 μl binding buffer. 5 μl of Annexin V-FITC and 10 μl of propidium iodide (Annexin V-FITC apoptosis detection kit; MBL) was added to the samples. After 10 minutes of incubation in the dark at RT, samples were analyzed using the FACS Sort (Beckton Dickinson) and results analyzed using the CellQuest program (Beckton Dickinson). Each measurement was repeated three times. FL1-H represents the fluorescence of V-FITC and FL2-H represents the fluorescence of […].

[5] = pancreatic RIN-m cells, 100 nM-10 μM, 6 hours

## hIAPP-Hiytelfluor 488 oligomers: oligomers of fluorescently labelled hIAPP-Hiytelfluor 488 (Anaspec) (KCNTATCATQRLANFLVHSSNNFGAILSSTNVGSNTY; not fully specified (C-terminus, bridges); cysteine pairing not given here; also: HiLyte Fluor 488 label, position not given here, oligomers; UniProt P10997 34-70, looked up)
[1]; after eight hours
  cell morphology (confocal): Dramatic cell morphology changes
[1]; after four hours, insertion of oligomers to the cytoplasm
  cell numbers (confocal): massive decline in cell numbers
[1]; after one hour
  interaction of oligomers with cells (confocal): intensive localization of the oligomers to the cell membrane

## rIAPP: non amyloidogenic rat IAPP synthetic peptide, negative control, treated in the same manner [reference compound]
[2]; [5]
  cell viability (MTT reduction): showed no such effect

B1: hIAPP oligomers: isolated stable oligomers (dimers, trimers, ~90 kDa) of synthetic human islet amyloid polypeptide prepared with HFIP, NaOH and SDS (peptide)
peptide: MGILKLQVFLIVLSVALNHLKATPIESHQVEKRKCNTATCATQRLANFLVHSSNNFGAILSSTNVGSNTYGKRNAVEVLKREPLNYLPL
[3]
  oligomer stability (no disassembly or further polymerization to fibrils): up to 7 days
[3]; listed as oligomeric structures
  oligomer stability (no disassembly or further polymerization to fibrils): stable for up to seven days
[2]; [5]
  cell viability (MTT reduction): dose dependent decrease in cell viability
[2]; pancreatic cells, 5 μM oligomers
  cell viability (MTT reduction): reduced dramatically
[4]
  correlation of oligomer concentration with percentage of apoptotic cells: clear and strong correlation
[4]; 4 hours
  cell state (apoptosis) by FACS: mostly in the early and late apoptotic phase
